According to patent US20210179706A1 (AKESO BIOPHARMA, published 2021):

Tests used:
human IL-1β-His-Bio [1] = biological target: T1, human IL-1β-His-Bio (human, UniProt P01584 117-269, limits assumed, biotinylated with EZ-Link Sulfo-NHS-LC-Biotinylation Kit (sites not given)); experiment: ELISA, IL-1β-His-Bio captured on streptavidin; 4-parameter fit
T1 construct: also called biotinylated human IL-1β-His; not shown: His tag

human IL-1β-His-Bio [2] = biological target: T1, human IL-1β-His-Bio; experiment: ELISA, IL-1β-His-Bio captured on streptavidin; antibody 0.012 µg/mL
Description: A plate was coated with 50 μL of 2 μg/mL SA (streptavidin) in each well, and incubated overnight at 4° C. After the plate was washed once and the residual liquid was removed, each well was blocked with 300 μL of 1% BSA solution (dissolved in PBS) and the plate was incubated at 37° C. for 2 h. The plate was washed three times and the residual liquid was removed. Human IL-1β-His-Bio in each well was diluted with 50 μL of PBST to 0.2 μg/mL, and the plate was incubated at 37° C. for 30 min. Then the plate was washed three times and the residual liquid was removed. […] Two duplicate wells were set for the above concentrations, with a final volume of 100 μL per well, and the plate was incubated at 37° C. for 30 min. […] After the plate was washed four times and the residual liquid was removed, 50 μL of TMB chromogenic solution was added to each well for color developing for 5 min away from light at room temperature, then 50 μL of stop solution was added to each well to stop the reaction. Then the plate was put into a plate reader immediately, and the OD value of each well in the plate was read at 450 nm.
SoftMax Pro 6.2.1 software was used to analyze and process the data. 4-parameter fitted curves were plotted using the antibody concentration as the abscissa and the absorbance as the ordinate.

human IL-1β-hFc = biological target: T2, human IL-1β-hFc (human, UniProt P01584 117-269, limits assumed); experiment: competition ELISA on coated IL-1β-hFc, competitor IL-1R1(1-332)-his; 4-parameter fit
T2 construct: also called human IL-1f3-hFc [sic]; not shown: human IgG Fc purification tag

EC50 (human IL-1β-His-Bio [1]): 0.099 nM
OD (450 nm) (human IL-1β-His-Bio [2]): 1.23 OD450
EC50 (human IL-1β-hFc): 0.137 nM
B1: anti-IL-1β murine monoclonal antibody 3H6 (antibody, V domains shown)
VH: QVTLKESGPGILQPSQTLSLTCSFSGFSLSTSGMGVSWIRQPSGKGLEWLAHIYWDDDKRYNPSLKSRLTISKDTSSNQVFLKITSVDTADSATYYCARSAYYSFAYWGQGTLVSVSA
VL: DIVMTQSHKFMSTSVGGRVRITCKASQDVDTDVAWFQQKPGQSPKLLIYWASTRHTGVPDRFTGSGSGTDFTLTISNVQSEDLADYFCQQYSSYPTFGAGTKLELK
notes: Mouse monoclonal antibody purified from hybridoma supernatant on protein A; also called antibody secreted by hybridoma cell line LT010 (IL-1β-3H6), CCTCC NO: C2018133
